Laboratory results: patent US12356911B2, “Group of UDP-glycosyltransferase for catalyzing carbohydrate chain elongation and application thereof” (GSYNBIOT (SHANGHAI) CO., LTD, priority 2017, dated 2025)
Residue numbers refer to the chain shown, from its start.

B1: GT29-25: Ginseng UDP-glycosyltransferase, 446 amino acids, SEQ ID NO: 30 (protein)
chain: MDNQKGRISIVMLPFLAHGHISPFFELAKHLSKRNCNIFLCSTPINLSSIKNRISDKDSSASIKLVELHLPSSPDLPPHYHTTNGLPSHLMVPLRNAFETAAPTFSEILKTLNPDLLIYDFNPSWAPEIASSHNIPAVCFIIGGAASFSMSLHSFKNPGEKYPFLDFDDNSNITPEPPSADNMKLLLDFMTCFERSCDIILIKSFRELEGKYFDFYSTLSDKTLVPVGPLVQDPMGHNEDPKTEQFINWLDKRAESTVVFVCFGSEYFLSNEELEEVAIGLEISMVNFIWAVRLIEGEKKGVLPEGFVQRVGDRGLVVEGWAPQARILGHSSTGGFVSHCGWSSITESMKFGVPVIAMARHFDQPLNAKLAAEVGVGTEVVRDENGKYKREDIAGVIRKVVVEKSGEVIRRKARELSEKMKEIGEQLIDRAVEELVQICKKKKDEQ
modifications: misc_feature - GT29-25; Panax ginseng
B2: GT29-24: Ginseng UDP-glycosyltransferase, 446 amino acids, SEQ ID NO: 28 (protein)
chain: B1 chain with T378M, D392G, G395E, I409M, I423K, Q426E, L427E, E445A
modifications: misc_feature - GT29-24; Panax ginseng
B3: GT29-34: Ginseng UDP-glycosyltransferase, 446 amino acids, SEQ ID NO: 8 (protein)
chain: MDIEKGRIIIVMLPFLAHGHISPFFELAKHLSKRNCNIFLCSTPINLSSIKNRVSDKDSSASIKLVELHLPSSPDLPPHYHTTNGLPSHLMVPLRNAFETAAPTFSEILKTLNPDLLIYDFNPSWAPEIASSHNIPAVYFLTSAAATSSMGLHAFKNSGEKYPFPDFYDNSNITPEPPSADKMKLFHDFVACFKRSCDIILIKSFRELEGKYIDFLSTLSKKTLVPVGPLVQDPMGHDEDPKTGHLINWLDKRAESTVVFVCFGSEYFPSNEELEELAIGLEISMVSFILAVRFPEGEKKGILPEGFVQRVGDRGLVVEGWAPQARILGHSSTGGFVSHCGWSSIMESVKFGVPVIAMARHLDQPLNAKLAAEVGVGMEVMRDENGKYKREGIAEVIRKVVVEKSGEVMRRKARELSEKMKEKGEEEIDRAVEELVQICKKKKDAQ
modifications: misc_feature - GT29-34; Panax ginseng
B4: GT29-33: Ginseng UDP-glycosyltransferase, 448 amino acids, SEQ ID NO: 6 (protein)
chain: MDIEKGRISIVMLPFLAHGHISPFFELAKHLSKRNCNIFLCSTPINLSSIKNRVSDKDSSASIKLVELHLPSSPDLPPHYHTTNGLPSHLMVPLRNAFETAAPTFSEILKTLNPDLLIYDFNPSWAPEIASSHNIPAVYFLTSAAATSSMGLHAFKNSGEKYPFPDFYDNSNITPEPPSADKMKLFHDFVACFKRSCDIILIKSFRELEGKYIDFLSTLSKKTLVPVGPLVQDPMGHDEDPKTGHLINWLDKRAESTVVFVCFGSEYFPSNEELEELAIGLEISMVSFILAVRFPEGEKKGILPEGFVQRVGDRGLVVEGWAPQSRILGHSSTGGFVSHCGWSSIMESVKFGVPVIAMARHLDQPLNAKLAAEVGVGMEVMRDENGKYKREAIAEVIRKVVMEKNGEVMRRKARELSEKMKVKGEQEIGRAVEELVQICKKKKQHAQY
modifications: misc_feature - GT29-33; Panax ginseng
B5: GT29-42: Ginseng UDP-glycosyltransferase, 444 amino acids, SEQ ID NO.: 94 (protein)
chain: MDNQEGRISIALLPFLAHGHISPFFELAKQLAKRNCNVFLCSTPINLSSIKNKDSSASIKLVELHLPSSPDLPPHYHTTNGLPSHLMVPLINAFETAGPTFSEILKTLNPDLLIYDFNPSWAPEIASSHNIPAVYFLTTAAASSSIGLHAFKNPGEKYPFPDFYDNSNNTPEPPSADNMKLLHDFIACFERSCDIILIKSFIELEGKYIDLLSTLSDKTLVPVGPLVQDPMGHNEDPKTEQIINWLDKRAESTVVFVCFGSEYFLSNEELEEVAIGLEISMVNFIWAVRLIEGEKKGVLPEGFVQRVGDRGLVVEGWAPQARILGHSSTGGFVSHCGWSSIMESVKFGVPVIAMARHLDQPLNAKLAAEVGVGMEVMRDENGKYKREAIAEVIRKVVMEKNGEVMRRKARELSEKMKVKGEQEIGRAVEELVQICKKKKQHAQY
modifications: Panax ginseng
B6: GT29-43: Ginseng UDP-glycosyltransferase, 442 amino acids, SEQ ID NO.: 96 (protein)
chain: MDNQKGRISIALLPFLAHGHISPFFELAKQLAKRNCNVFLCSTPINLSSIKDKDSSASIKLVELHLPSSPDLPPHYHTTNGLPSHLMLPLRNAFETAGPTFSEILKTLNPDLLIYDFNPSWAPEIASSHNIPAVYFLTTAAASSSIGLHAFKNPGEKYPFPDFYDNSNITPEPPSADNMKLLHDFIACFERSCDIILIKSFRELEGKYIDLLSTLSDKTLVPVGPLVQDPMGHNEDPKTEQIINWLDKMAESTVVFVCFGSEYFLSNEELEEVAIGLEISTVNFIWAVRLIEGEKKGILPEGFVQRVGDRGLVVEGWAPQARILGHSSTGGFVSHCGWSSIAESMKFGVPVIAMARHLDQPLNGKLAAEVGVGMEVVRDENGKYKREGIAEVIRKVVVEKSGEVIRRKARELSEKMKEKGEQEIDRALEELVQICKKKKDEQ
modifications: Panax ginseng

Columns and labels:
Type in all cases: biochemical
[1] = In vitro transglycosylation at C-3, Rh2 as glycosyl acceptor, UDP-glucose as donor; conditions: crude enzyme (E. coli lysate supernatant); TLC, FIG. 13, FIG. 15
Description: (§1) Cell lysate of recombinant E. coli with empty vector pET28a was used as a control.

[2] = In vitro transglycosylation at C-6, Rg1 as glycosyl acceptor, UDP-xylose as donor; conditions: crude enzyme (E. coli lysate supernatant); TLC and HPLC, FIG. 7-9
[3] = In vitro transglycosylation at C-3, F2 as glycosyl acceptor, UDP-glucose as donor; conditions: crude enzyme (E. coli lysate supernatant)
[4] = In vitro transglycosylation at C-20, Rd as glycosyl acceptor, UDP-glucose as donor; conditions: crude enzyme (E. coli lysate supernatant); TLC/HPLC, FIG. 2, 3, 11
Description: as §1

[5] = In vitro transglycosylation at C-20, CK as glycosyl acceptor, UDP-arabinose as donor; conditions: crude enzyme (E. coli lysate supernatant); TLC, FIG. 17
[6] = In vitro transglycosylation at C-20, CK as glycosyl acceptor, UDP-glucose as donor; conditions: crude enzyme (E. coli lysate supernatant); TLC/HPLC, FIG. 2, 3, 12, 16
Description: as §1
As shown in FIG. 16: Protopanaxadiol Ginsenoside CK is used as a glycosyl acceptor, and UDP-glucose is used as a glycosyl donor.

[7] = In vitro transglycosylation at C-3, Rd as glycosyl acceptor, UDP-xylose as donor; conditions: crude enzyme (E. coli lysate supernatant); TLC, FIG. 14

| Molecule | product formation from Rh2 and UDP-glucose (Rg3) [1] | product formation from Rg1 and UDP-xylose (notoginsenoside R1) [2] | product formation from F2 and UDP-glucose (Rd) [3] | product formation from Rd and UDP-glucose (Rb1) [4] | product formation from CK and UDP-arabinose (Ginsenoside F3) [5] | product formation from CK and UDP-glucose (Gypenoside LXXV) [6] | product formation from Rd and UDP-xylose (replacement of second glucose at C-3 with xylose) [7] |
| --- | --- | --- | --- | --- | --- | --- | --- |
| B1 | catalyze the production of ginsenoside Rg3 | can catalyze the formation of Notoginsenoside RI | can further catalyze the extension of a glucosyl at the C-3 glycosyl of F2 to produce ginsenoside Rd |  |  |  |  |
| B2 | catalyze the production of ginsenoside Rg3 | can catalyze the formation of Notoginsenoside RI | can further catalyze the extension of a glucosyl at the C-3 glycosyl of F2 to produce ginsenoside Rd |  |  |  |  |
| B3 |  |  |  | can catalyze the formation of Rb1 | can catalyze the first glycosyl of C-20 of CK to extend an arabinosyl to generate Ginsenoside F3 | can catalyze the formation of a new product |  |
| B4 |  |  |  | can catalyze the formation of Rb1 | can catalyze the first glycosyl of C-20 of CK to extend an arabinosyl to generate Ginsenoside F3 |  |  |
| B5 | can all catalyze the extension of a glucosyl at the C-3 glycosyl of Rh2 to generate Rg3 |  |  |  |  |  | can all catalyze the replacement of the second glucose at C-3 position of Rd with xylose |
| B6 | can all catalyze the extension of a glucosyl at the C-3 glycosyl of Rh2 to generate Rg3 |  |  |  |  |  | can all catalyze the replacement of the second glucose at C-3 position of Rd with xylose |
